Measured values reported in PMC12865031, “Mechanistic insights into PCBP1-driven unfolding of selected i-motif DNA at G1/S checkpoint”.

Key:
[1] = target: T1, PCBP1 (wild type) (UniProt Q15365 1-356); experiment: EMSA; pH 6.4, i-motif; MST: 20 mM MES pH 6.4, phosphate pH 7.0 or Tris-Cl pH 8.0, 100 mM NaCl, 25 C; EMSA: 20 mM Bis-Tris pH 6.4 or Tris-HCl pH 8.0, 100 mM NaCl, 0.25 mg/mL BSA, 25 C; NMR/CD: 20 mM MES pH 6.4, 100 mM NaCl; footprinting 20 mM MES pH 6.4, 50 mM NaCl; details: protein: recombinant; tags: His tag (pET-His1a), removed by TEV; label: 5'-Cy5 (EMSA, MST); intramolecular i-motif at pH 6.4; unfolded at pH 7.0 and 8.0
T1 sequence (Q15365 whole entry): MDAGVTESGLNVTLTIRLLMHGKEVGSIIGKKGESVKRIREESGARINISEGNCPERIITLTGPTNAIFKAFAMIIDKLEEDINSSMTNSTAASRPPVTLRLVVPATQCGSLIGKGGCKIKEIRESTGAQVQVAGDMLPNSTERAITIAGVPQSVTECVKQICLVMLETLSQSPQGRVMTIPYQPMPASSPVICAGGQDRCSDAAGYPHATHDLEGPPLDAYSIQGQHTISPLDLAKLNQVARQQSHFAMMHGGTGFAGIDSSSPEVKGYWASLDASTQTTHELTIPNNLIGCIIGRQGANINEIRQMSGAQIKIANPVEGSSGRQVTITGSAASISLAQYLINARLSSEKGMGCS

[2] = target: T1, PCBP1 (wild type); experiment: CD titration; stronger blue-shift than wild-type BCL2; MST: 20 mM MES pH 6.4, phosphate pH 7.0 or Tris-Cl pH 8.0, 100 mM NaCl, 25 C; EMSA: 20 mM Bis-Tris pH 6.4 or Tris-HCl pH 8.0, 100 mM NaCl, 0.25 mg/mL BSA, 25 C; NMR/CD: 20 mM MES pH 6.4, 100 mM NaCl; footprinting 20 mM MES pH 6.4, 50 mM NaCl; details: protein: recombinant; tags: His tag (pET-His1a), removed by TEV; i-motif without hairpin
[3] = target: T2, PCBP1 KH1+2 (UniProt Q15365 1-169); experiment: MST; pH 6.4; no structural selectivity; MST: 20 mM MES pH 6.4, phosphate pH 7.0 or Tris-Cl pH 8.0, 100 mM NaCl, 25 C; EMSA: 20 mM Bis-Tris pH 6.4 or Tris-HCl pH 8.0, 100 mM NaCl, 0.25 mg/mL BSA, 25 C; NMR/CD: 20 mM MES pH 6.4, 100 mM NaCl; footprinting 20 mM MES pH 6.4, 50 mM NaCl; details: protein: recombinant; tags: His tag (pET-His1a), removed by TEV; label: 5'-Cy5 (EMSA, MST); intramolecular i-motif at pH 6.4; unfolded at pH 7.0 and 8.0
T2 sequence (Q15365 1-169): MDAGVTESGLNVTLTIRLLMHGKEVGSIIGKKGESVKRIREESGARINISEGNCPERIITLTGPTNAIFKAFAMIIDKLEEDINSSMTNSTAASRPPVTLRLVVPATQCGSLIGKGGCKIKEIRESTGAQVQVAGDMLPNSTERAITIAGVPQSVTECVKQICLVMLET

[4] = target: T3, PCBP1 KH1+2;PCBP1 KH3 (Homo sapiens?;Homo sapiens?, UniProt Q15365;Q15365 1-169;269-356, |); experiment: MST; pH 6.4; affinity and selectivity for i-motif restored; MST: 20 mM MES pH 6.4, phosphate pH 7.0 or Tris-Cl pH 8.0, 100 mM NaCl, 25 C; EMSA: 20 mM Bis-Tris pH 6.4 or Tris-HCl pH 8.0, 100 mM NaCl, 0.25 mg/mL BSA, 25 C; NMR/CD: 20 mM MES pH 6.4, 100 mM NaCl; footprinting 20 mM MES pH 6.4, 50 mM NaCl; details: protein: recombinant;recombinant, tags: His tag (pET-His1a), removed by TEV;His tag (pET-His1a), copies: 1;1, label: 5'-Cy5 (EMSA, MST), intramolecular i-motif at pH 6.4, unfolded at pH 7.0 and 8.0
T3 sequence (Q15365 1-169, chain 1 of 2): as the sequence (Q15365 1-169) above
T3 sequence (Q15365 269-356, chain 2 of 2): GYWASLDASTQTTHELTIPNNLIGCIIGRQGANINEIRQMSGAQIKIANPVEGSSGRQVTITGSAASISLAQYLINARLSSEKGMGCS

[5] = target: T1, PCBP1 (wild type); experiment: EMSA; pH 6.4, i-motif; two shifted bands; MST: 20 mM MES pH 6.4, phosphate pH 7.0 or Tris-Cl pH 8.0, 100 mM NaCl, 25 C; EMSA: 20 mM Bis-Tris pH 6.4 or Tris-HCl pH 8.0, 100 mM NaCl, 0.25 mg/mL BSA, 25 C; NMR/CD: 20 mM MES pH 6.4, 100 mM NaCl; footprinting 20 mM MES pH 6.4, 50 mM NaCl; details: protein: recombinant; tags: His tag (pET-His1a), removed by TEV; label: 5'-Cy5 (EMSA, MST); intramolecular i-motif with co-existing hairpin at pH 6.4; unfolded at pH 7.0 and 8.0
[6] = target: T1, PCBP1 (wild type); experiment: EMSA; pH 6.4; MST: 20 mM MES pH 6.4, phosphate pH 7.0 or Tris-Cl pH 8.0, 100 mM NaCl, 25 C; EMSA: 20 mM Bis-Tris pH 6.4 or Tris-HCl pH 8.0, 100 mM NaCl, 0.25 mg/mL BSA, 25 C; NMR/CD: 20 mM MES pH 6.4, 100 mM NaCl; footprinting 20 mM MES pH 6.4, 50 mM NaCl; details: protein: recombinant; tags: His tag (pET-His1a), removed by TEV; label: 5'-Cy5 (EMSA); unfolded
[7] = target: T1, PCBP1 (wild type); experiment: MST; pH 6.4, i-motif; stronger than pH 8.0; MST: 20 mM MES pH 6.4, phosphate pH 7.0 or Tris-Cl pH 8.0, 100 mM NaCl, 25 C; EMSA: 20 mM Bis-Tris pH 6.4 or Tris-HCl pH 8.0, 100 mM NaCl, 0.25 mg/mL BSA, 25 C; NMR/CD: 20 mM MES pH 6.4, 100 mM NaCl; footprinting 20 mM MES pH 6.4, 50 mM NaCl; details: protein: recombinant; tags: His tag (pET-His1a), removed by TEV; label: 5'-Cy5 (MST); i-motif at pH 6.4 and 7.0; unfolded at pH 8.0
[8] = target: T3, PCBP1 KH1+2;PCBP1 KH3; experiment: bromine footprinting; pH 6.4; cleavage enhanced across all Cs; MST: 20 mM MES pH 6.4, phosphate pH 7.0 or Tris-Cl pH 8.0, 100 mM NaCl, 25 C; EMSA: 20 mM Bis-Tris pH 6.4 or Tris-HCl pH 8.0, 100 mM NaCl, 0.25 mg/mL BSA, 25 C; NMR/CD: 20 mM MES pH 6.4, 100 mM NaCl; footprinting 20 mM MES pH 6.4, 50 mM NaCl; details: protein: recombinant;recombinant, tags: His tag (pET-His1a), removed by TEV;His tag (pET-His1a), copies: 1;1, label: 3'-Cy5, intramolecular i-motif at pH 6.4
[9] = target: T1, PCBP1 (wild type); experiment: bromine footprinting; pH 6.4; enhanced cleavage across all Cs; MST: 20 mM MES pH 6.4, phosphate pH 7.0 or Tris-Cl pH 8.0, 100 mM NaCl, 25 C; EMSA: 20 mM Bis-Tris pH 6.4 or Tris-HCl pH 8.0, 100 mM NaCl, 0.25 mg/mL BSA, 25 C; NMR/CD: 20 mM MES pH 6.4, 100 mM NaCl; footprinting 20 mM MES pH 6.4, 50 mM NaCl; details: protein: recombinant; tags: His tag (pET-His1a), removed by TEV; label: 3'-Cy5; intramolecular i-motif at pH 6.4
[10] = target: T2, PCBP1 KH1+2; experiment: bromine footprinting; pH 6.4; increased cleavage at C3-C5 and C12-C14; MST: 20 mM MES pH 6.4, phosphate pH 7.0 or Tris-Cl pH 8.0, 100 mM NaCl, 25 C; EMSA: 20 mM Bis-Tris pH 6.4 or Tris-HCl pH 8.0, 100 mM NaCl, 0.25 mg/mL BSA, 25 C; NMR/CD: 20 mM MES pH 6.4, 100 mM NaCl; footprinting 20 mM MES pH 6.4, 50 mM NaCl; details: protein: recombinant; tags: His tag (pET-His1a), removed by TEV; label: 3'-Cy5; intramolecular i-motif at pH 6.4

TGTCCCCACACCCCTGTCCCCACACCCCTGT (structured_DNA) [ILPR-iMfs]: binds [1].

CATCCCCTCTCCCTCCCCCTTCCTCCCTCTCCCTCCCCT (structured_DNA) [BCL2-Gall>T]: binds [2].

AATCCCACCCCTCCCATCCCTT (structured_DNA) [cMYC-iMfs]: binds [1]; binds [3]; binds [4].

CCCTAACCCTAACCCTAACCCT (structured_DNA) [hTeloC-iMfs]: binds [1].

CAGCCCCGCTCCCGCCCCCTTCCTCCCGCGCCCGCCCCT (structured_DNA) [BCL2-iMfs]: binds [5].

CAGCCCCGCTCCCGCCCCCTTCCTCCCTCTCCCGCCCCT (structured_DNA) [BCL2-G10TG12T]: binds [2].

TACACTCACACTCACACTCACACTCAA (ssDNA) [mutC]: no binding [6].

CCCCCCCTTTCCCCCCCTTTCCCCCCCTTTCCCCCCC (structured_DNA) [C7T3-iMfs]: binds [7].

AATCCCACCCCTCCCATCCCTTTTT (structured_DNA) [cMYC-iMfs-Br]: binds [8]; binds [9]; binds [10].
